Test results from the supplement of paper PMC5998384.

Tests used:
HeLa Kyoto [1] = assay: solubility change mitosis vs G1/S (difference of NP-40 vs SDS log2 ratios) (log2 ratio difference); higher = more soluble in mitosis
HeLa Kyoto [2] = assay: thermal stability score vs G1/S (z-score of summed log2 fold changes over temperatures); higher = more thermally stable than in G1/S
HeLa Kyoto [3] = assay: melting temperature (median over replicates), in situ; higher = more thermally stable
HeLa Kyoto [4] = assay: solubility in G1/S (NP-40 vs SDS abundance) (log2 ratio); higher = more soluble; details: cell cycle stage: G1/S
[5] = cell cycle stage: early G1 (4.5 h after nocodazole release)
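Wherever melting temperature (median over replicates), in situ is given: HeLa Kyoto cells synchronized by double thymidine or nocodazole block, proteins quantified by TMT10plex mass spectrometry, three independent biological replicates.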
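Wherever solubility change mitosis vs G1/S (difference of NP-40 vs SDS log2 ratios) is given: synchronized HeLa Kyoto cells (double thymidine block for G1/S, nocodazole release for mitosis), protein amounts in NP-40 versus SDS lysates quantified by mass spectrometry, three biological replicates.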
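Wherever solubility in G1/S (NP-40 vs SDS abundance) is given: HeLa Kyoto cells arrested at G1/S by double thymidine block, proteins quantified by TMT10plex mass spectrometry in mild NP-40 versus SDS extracts, three biological replicates.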
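Wherever thermal stability score vs G1/S (z-score of summed log2 fold changes over temperatures) is given: synchronized HeLa Kyoto cells, proteins quantified by TMT10plex mass spectrometry, three biological replicates, mitosis taken 0.5 h after nocodazole release, G1/S directly after double thymidine block.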

MNPNCARCGKIVYPTEKVNCLDKFWHKACFHCETCKMTLNMKNYKGYEKKPYCNAHYPKQSFTMVADTPENLRLKQQSELQSQVRYKEEFEKNKGKGFSVVADTPELQRIKKTQDQISNIKYHEEFEKSRMGPSGGEGMEPERRDSQDGSSYRRPLEQQQPHHIPTSAPVYQQPQQQPVAQSYGGYKEPAAPVSIQRSAPGGGGKRYRAVYDYSAADEDEVSFQDGDTIVNVQQIDDGWMYGTVERTGDTGMLPANYVEAI [LASP1]
solubility change mitosis (log2) (HeLa Kyoto [1]): 0.0867 | thermal stability score (HeLa Kyoto [2]; [5]): -2.02 | thermal stability score (HeLa Kyoto [2]; cell cycle stage: mitosis): -2.68 | melting temperature (HeLa Kyoto [3]; cell cycle stage: G1/S): 58.7 °C | melting temperature (HeLa Kyoto [3]; cell cycle stage: mitosis): 60.5 °C | solubility in G1/S (log2) (HeLa Kyoto [4]): 0.0591

MNPSMKQKQEEIKENIKNSSVPRRTLKMIQPSASGSLVGRENELSAGLSKRKHRNDHLTSTTSSPGVIVPESSENKNLGGVTQESFDLMIKENPSSQYWKEVAEKRRKALYEALKENEKLHKEIEQKDNEIARLKKENKELAEVAEHVQYMAELIERLNGEPLDNFESLDNQEFDSEEETVEDSLVEDSEIGTCAEGTVSSSTDAKPCI [GMNN]
solubility change mitosis (log2) (HeLa Kyoto [1]): -0.0263 | thermal stability score (HeLa Kyoto [2]; [5]): -7.44 | thermal stability score (HeLa Kyoto [2]; cell cycle stage: mitosis): -7.77 | melting temperature (HeLa Kyoto [3]; cell cycle stage: G1/S): 57.5 °C | melting temperature (HeLa Kyoto [3]; cell cycle stage: mitosis): 52.7 °C | solubility in G1/S (log2) (HeLa Kyoto [4]): 0.46

MNPTLILAAFCLGIASATLTFDHSLEAQWTKWKAMHNRLYGMNEEGWRRAVWEKNMKMIELHNQEYREGKHSFTMAMNAFGDMTSEEFRQVMNGFQNRKPRKGKVFQEPLFYEAPRSVDWREKGYVTPVKNQGQCGSCWAFSATGALEGQMFRKTGRLISLSEQNLVDCSGPQGNEGCNGGLMDYAFQYVQDNGGLDSEESYPYEATEESCKYNPKYSVANDTGFVDIPKQEKALMKAVATVGPISVAIDAGHESFLFYKEGIYFEPDCSSEDMDHGVLVVGYGFESTESDNNKYWLVKNSWGEEWGMGGYVKMAKDRRNHCGIASAASYPTV [CTSL]
solubility change mitosis (log2) (HeLa Kyoto [1]): 0.0996 | thermal stability score (HeLa Kyoto [2]; [5]): 1.47 | thermal stability score (HeLa Kyoto [2]; cell cycle stage: mitosis): 1.22 | melting temperature (HeLa Kyoto [3]; cell cycle stage: G1/S): 53.9 °C | melting temperature (HeLa Kyoto [3]; cell cycle stage: mitosis): 55 °C | solubility in G1/S (log2) (HeLa Kyoto [4]): -0.176

MNRFRVSKFRHTEARPPRRESWISDIRAGTAPSCRNHIKSSCSLIAFNSDRPGVLGIVPLQGQGEDKRRVAHLGCHSDLVTDLDFSPFDDFLLATGSADRTVKLWRLPGPGQALPSAPGVVLGPEDLPVEVLQFHPTSDGILVSAAGTTVKVWDAAKQQPLTELAAHGDLVQSAVWSRDGALVGTACKDKQLRIFDPRTKPRASQSTQAHENSRDSRLAWMGTWEHLVSTGFNQMREREVKLWDTRFFSSALASLTLDTSLGCLVPLLDPDSGLLVLAGKGERQLYCYEVVPQQPALSPVTQCVLESVLRGAALVPRQALAVMSCEVLRVLQLSDTAIVPIGYHVPRKAVEFHEDLFPDTAGCVPATDPHSWWAGDNQQVQKVSLNPACRPHPSFTSCLVPPAEPLPDTAQPAVMETPVGDADASEGFSSPPSSLTSPSTPSSLGPSLSSTSGIGTSPSLRSLQSLLGPSSKFRHAQGTVLHRDSHITNLKGLNLTTPGESDGFCANKLRVAVPLLSSGGQVAVLELRKPGRLPDTALPTLQNGAAVTDLAWDPFDPHRLAVAGEDARIRLWRVPAEGLEEVLTTPETVLTGHTEKICSLRFHPLAANVLASSSYDLTVRIWDLQAGADRLKLQGHQDQIFSLAWSPDGQQLATVCKDGRVRVYRPRSGPEPLQEGPGPKGGRGARIVWVCDGRCLLVSGFDSQSERQLLLYEAEALAGGPLAVLGLDVAPSTLLPSYDPDTGLVLLTGKGDTRVFLYELLPESPFFLECNSFTSPDPHKGLVLLPKTECDVREVELMRCLRLRQSSLEPVAFRLPRVRKEFFQDDVFPDTAVIWEPVLSAEAWLQGANGQPWLLSLQPPDMSPVSQAPREAPARRAPSSAQYLEEKSDQQKKEELLNAMVAKLGNREDPLPQDSFEGVDEDEWD [CORO7]
solubility change mitosis (log2) (HeLa Kyoto [1]): 0.159 | thermal stability score (HeLa Kyoto [2]; [5]): 0.406 | thermal stability score (HeLa Kyoto [2]; cell cycle stage: mitosis): 0.778 | melting temperature (HeLa Kyoto [3]; cell cycle stage: G1/S): 51 °C | melting temperature (HeLa Kyoto [3]; cell cycle stage: mitosis): 51.9 °C | solubility in G1/S (log2) (HeLa Kyoto [4]): -0.00965

MNSPGGRGKKKGSGGASNPVPPRPPPPCLAPAPPAAGPAPPPESPHKRNLYYFSYPLFVGFALLRLVAFHLGLLFVWLCQRFSRALMAAKRSSGAAPAPASASAPAPVPGGEAERVRVFHKQAFEYISIALRIDEDEKAGQKEQAVEWYKKGIEELEKGIAVIVTGQGEQCERARRLQAKMMTNLVMAKDRLQLLEKMQPVLPFSKSQTDVYNDSTNLACRNGHLQSESGAVPKRKDPLTHTSNSLPRSKTVMKTGSAGLSGHHRAPSYSGLSMVSGVKQGSGPAPTTHKGTPKTNRTNKPSTPTTATRKKKDLKNFRNVDSNLANLIMNEIVDNGTAVKFDDIAGQDLAKQALQEIVILPSLRPELFTGLRAPARGLLLFGPPGNGKTMLAKAVAAESNATFFNISAASLTSKYVGEGEKLVRALFAVARELQPSIIFIDEVDSLLCERREGEHDASRRLKTEFLIEFDGVQSAGDDRVLVMGATNRPQELDEAVLRRFIKRVYVSLPNEETRLLLLKNLLCKQGSPLTQKELAQLARMTDGYSGSDLTALAKDAALGPIRELKPEQVKNMSASEMRNIRLSDFTESLKKIKRSVSPQTLEAYIRWNKDFGDTTV [SPAST]
solubility change mitosis (log2) (HeLa Kyoto [1]): -0.012 | thermal stability score (HeLa Kyoto [2]; [5]): 0.0551 | thermal stability score (HeLa Kyoto [2]; cell cycle stage: mitosis): 1.16 | melting temperature (HeLa Kyoto [3]; cell cycle stage: G1/S): 48.8 °C | melting temperature (HeLa Kyoto [3]; cell cycle stage: mitosis): 49.3 °C | solubility in G1/S (log2) (HeLa Kyoto [4]): 0.427
